Test results: article PMC3973203 (Cell Death & Disease, 2014)

B1: HIS-aPKCι, PB1 domain of human atypical protein kinase C ι (amino acids 1–113) (domain or fragment, UniProt P41743 1-113, looked up)
chain: MPTQRDSSTMSHTVAGGGSGDHSHQVRVKAYYRGDIMITHFEPSISFEGLCNEVRDMCSFDNEQLFTMKWIDEEGDPCTVSSQLELEEAFRLYELNKDSELLIHVFPCVPERP

Tests used:
[1] = biological target: atypical protein kinase C ι (aPKCι) (Homo sapiens, UniProt P41743)
GST-PAR6 (Par6a, cds) = biological target: T1, GST-PAR6 (Par6a, cds) (human, UniProt Q9NPB6 1-346); test: pull-down
T1 sequence (looked up): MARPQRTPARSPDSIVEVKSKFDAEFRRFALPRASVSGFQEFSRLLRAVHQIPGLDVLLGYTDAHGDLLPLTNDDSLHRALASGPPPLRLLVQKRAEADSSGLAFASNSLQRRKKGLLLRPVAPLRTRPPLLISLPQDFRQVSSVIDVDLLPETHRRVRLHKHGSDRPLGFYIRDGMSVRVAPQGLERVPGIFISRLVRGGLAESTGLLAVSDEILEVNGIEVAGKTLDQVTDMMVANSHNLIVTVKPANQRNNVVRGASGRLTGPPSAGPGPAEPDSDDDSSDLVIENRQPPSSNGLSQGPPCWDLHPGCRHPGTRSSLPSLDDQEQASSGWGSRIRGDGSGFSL

Molecule	IC50 [1] [µM]	mean binding ratio at 10 μM ATM (0 μM ATM = 100%) (GST-PAR6 (Par6a, cds)) [%]	mean binding ratio at 50 μM ATM (0 μM ATM = 100%) (GST-PAR6 (Par6a, cds)) [%]
O=C(O)CC([S][Au])C(=O)O (stereo not drawn) [ATM, aurothiomalate]	20.4		
B1		63.8	32.7
